Data as given in the nanobody polyreactivity screen of Harvey et al. (2022).

Experiment: yeast display, Sf9 membrane polyspecificity reagent, FACS + sequencing; frameworks hold sequencing errors
Procedure, shortened: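 A synthetic nanobody library was expressed on Saccharomyces cerevisiae BJ5465 by galactose induction for 36–48 hours. The library was stained for 1 hour at 4 °C with 10% biotinylated, detergent-solubilized Sf9 membrane reagent and enriched with streptavidin microbeads before FACS. Low and high (top ~1%) gates were set on anti-HA fluorescence for expression and streptavidin fluorescence for reagent binding, and each polyreactivity label reflects the gate of origin.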

| Sequence | polyreactivity (PSR sort gate) |
| --- | --- |
| QVQLVESGGGLVQAGGSLRLSCAASGITFYGYAMGWYRQAPGKERELVARISSGGTTKYADSVKGRFTISRDNAKNTVYLQMNSLKPEDTAVYYCAVGGSWWYYGFYYWGQATQVTVSS | high polyreactivity |
| QVQLVESGGGLVQAGGSLRLSCAASGRTLGGYAMGWYRQAPGKERELVASITSTSSTYADSVKGRFTISRDNAKNTVYLQMNSLKPEDTAVYYCAADYFLTSYGWRIHYTYYYWGQGTQVTVSS | low polyreactivity |
| QVQLVESGGGLVQAGGSLRLSCAASGSTFDIYVMGWYRQAPGKERELVAAISRVGNTSYADSVKGRFTISRDNAKNTVYLQMNRLNPEDTAVYYCAADRADFFVIRTIDPYDYWGQGTQVTVSS | low polyreactivity |
| QVQLVESGGGLVQAGGSLRLSCAASGRIFVVNAMGWYRQAPGNERELVAAISSSSDSTYYADSVKGRCTISRDNAKNTVYLQMNSLKPEDTAVYYCAADYHYDGYWIYDYWGQGTQVTVSS | high polyreactivity |
| QVQLVESGGGLVQAGGSLRVSCAASGFTFGSYAMGWYRQSPGKERELVAVITRSGRTNYADSVKGRFTISRDNAKNTVYLQMNSLKPEDTAVYYCNADDVDDEVSPDLTEMDYWGQGTQVTVSS | low polyreactivity |
| QVQLVESGGGLVQAGGSLRLSCAASGSTFGVYAMGRYRQAPGKERELVAAISYGDSTNYADSVKGRFTISRDNAKNTVYLQMNSLIPEDTAVYYCNALELYAAYPEYYLYYWYDYWGQGTQVNVSS | high polyreactivity |
| QDQLVESGGGLVQAGGSLRLSGAASGRIFRTNAMGWSRQAPGKERELVAAISDSGADTSYADSVKGRFTISRDNAKQSVYLQMNSLKPEDTAVYYCNRGRVSYRYLKDYDYWGQGTQVTVSS | low polyreactivity |
| QVELVESGGGLVLAGGSLRLSCADSGRTFSYYAMGWYRQAPGKERELVAVITSSGGSTSYADSVKGRFTISRDNAKNTVYLQMNSLKPEDTAVYDCAADPLAVYWAYYLIGVYYWGQGTQVTVSS | high polyreactivity |
| QVQLVESGGRLVQAGGSLSISCAASGSTFTSYSMGWYRQAPGKERELVAAIRRIGGDTYYADSVKGRFTISRDNAKNTVYLQMNSLKPEDTAVNYCAAVRWRSEPYWYHAMEHWGQGTQVTVSS | low polyreactivity |
| QDQLVESGGGLVQAVGSLRLSCAASGSTFWSYAMGWYRQAPGKERELVAAITDSGGSTYYADSVKGRFTISRDNAKNTVYLQMNSLKPEDTAVYYCAVDSRYTPPLRPLGPFDYWGQGTQVTVSS | low polyreactivity |
| QVQLVESGGGVVQAGGSLRLSCAASGSIFAGIAMGWYRQAPGKERELVADITSGDSTYYADSLKGRFTISRDNAKNTVYLQMNSLTPEDTAVYYCNNQLRVPQGAFFWFHGMDYWGQGTQVTVSS | low polyreactivity |
| QVQLGESGGGLVQAGGSRRLSCAASGLIFASNAMGWYRQAPGKEREFDAAISISGGSTYYADSVKGRFTISRDNAKNTVYLQMNSLKPEDTAVYYCAAKLYTVRRPELDYWGQGTQVTVSS | low polyreactivity |
| QGQLVESGGGLVQAGGILRLRCAASGRMFQQYAMGWYRQAPGKERELVAVITYRAGRTHYADSVKGRFTISRDIAKNTVYLQMYRVKPDDTAVYYCAAGRYYAVWHSISGFDSWGQGTQETVSS | low polyreactivity |
| QVQLVESGGGLVQEGGSLRLSCAASRRTFRLYVMGWYSQAPGKERELVAAITWRGRTTYYAHSVKGRFTISRDNAKNTVYLQMNSLKPEDTAVYYCATTRYPRSYQEFGYWGQGTQGTVSS | high polyreactivity |
| QVQLVESGGGLVQAGGSLRLSCAASGSTFEAYAMGWYRQAPGKERELVAAIRSSGSTSYADSVKGRFTISRDNAKNTVYLQMNSLKPVDTAVYYCAARVRGYPRYKRDYWGQGTQVTVSS | high polyreactivity |
| QVQLVESGGGLVQAGGSLRLSCAASGRIFFRYAMGWSRQAPGKEREFVATITWSGGRTHYADSVKGRFTISRDNAKNTVYLQMNSLKPEDTAVYYCAASYHRYAFDYWGQGTQVTGSS | high polyreactivity |
| QVQLVESGGGLVQAGGSLRLSCAASGIIFYLYAMGWYRQAPGKERELVAAISRRGVSTYYADSVKGRFTISRDNAKNTVYLQMNSLKPEDTAVYYCAAAGFGYTGEEYWGQGTQVTVSS | high polyreactivity |
| QVQLVESGGGLVQAGGSLRLSCAASGNTFWDNAMGWYRQAPGKERELVAAIRWSTGSTHYADSVKGRFTISRDNAKNTVYLQMNSLKPEDTAVYYCAATDYYYYRDKYYGYDYWGQGTQVTVSS | low polyreactivity |
| QVQLVESGGGLVQAGRSIRLSCAASGRTFLGNSLGWYRQAPGKEMELVAAITRNGGGTYYPDSVKGRFTISRDNAKNTVYLQMNSLKPEDTAVYYCAALTSLFWRGGGLDYWGQGTQVTVSS | high polyreactivity |
| QVQLVESGGGLYQAGGSLRLSSAASGRIFPWNTMGWYRQAPGKERELVAGINNGDRTYYADSVKGRFTISRDNAKNTVYLQMNSQKPEDTAVYYCAVDTWYFLFQYGYYQEGDYWGQGTQVTVSS | low polyreactivity |
| QVQLVESGGGLVQAGGSLRLSCAASGSTFYSYAMGWYRQAPGKERELVAAITTSGVSTYYADSVKGRFTISRDNAKNTVYLQMNSLKPEDTAVYYCNAYFIYEGGWYYKAQYDYWGQGTQVTVSS | low polyreactivity |
| QVQLVESGGGLVQAGGSLSLSCAASGRIFTRYAMGWYRQAPGKERELVAAISYGGGGTYYADSVKGRFTISRDNAKNTVYLQMNSLKPEDTAVYYCATDDPLSQINEHGMDYWGQGTQVTVSS | low polyreactivity |

| Sequence | polyreactivity (PSR sort gate) |
| --- | --- |
| QVQLVESGGGLVQAGGSLRLSCAASGSTFNYYAMGWYRQAPGKERELVAGITWRGRTYYADSVKGRFTISRDNAKNTVYLQMNSLKPEDTAVYYCAARQGTYGYWGQGTQVTVSS | high polyreactivity |
| QVQLVESGGGLVQAGGSLRLSCAASGRTIVAYAMGWYRQAPGKERELVAAISWSTGSTYYADSVKGRFTISRDNAKNTVYLQMNSLKPEDTAVYYCAGLVWAPRDYWGQGTQVTVSS | low polyreactivity |
| QVQLVESGGGLVQAGASLRLSCAASGSTFYFYTMGWYRQAPWKERELVAAITRDGSTYYADSVKGRFTISRDNAKNTVYLQMNSLKPEDTAVYYCNALRWAYKFSAYYYWGQGTQVSVSS | low polyreactivity |
| QVQLVESGRGLVQAQGSLRLSCAASGRIFNYNAMGWYRQAPGNERELVAVISRRGGSTYYADSVKGRFTISRDYAKNTVYLQMNSLKPEDTAVYYCGADLPSYPYEYWGLGTQVTVSS | low polyreactivity |
| QVQLVESVGGLVPAGGSLRLSCAASGFTYPAYTMGWYRQAPGKERELVAAITSSGGNTYYADSVKGRFTISRDNAKNTVYLQMNSLKPEDTAVYYCYADASSSPYTDRQYIGADDSWGQGTQVTVSS | low polyreactivity |
| QVQIEESGGGLVQAGGSLRLSCAASASIFYPNAMGWYRQAPVKEREFVAAITRNGDSTYYADSVKGRFTISRDNAKNTVYLQMNSLKPEDTAVYYCNTDGQGIYSYNKDLSWISGYDYWGQGTQVTVSS | low polyreactivity |
| QDQLVESGGGLVQAGGNLRLSCAASGSIFSDYTIGWYRQAPGKERELVADITLSSGSTYYADSVKGRFTISRDNAKNTVYLQMNSLKPEDTAVYYCAADGWYYFRSGDFEYDYWGHGTQVTVSS | low polyreactivity |
| QVQLVESGGGLVQAGGSLRLSCAASGSTFQSYTMGWYRQAPGKERELVATITSTSSTSYADSVKGRFTISRDNAKNTVYLQMNSLKPEDTAVYYCNAEGLHWGQGTQVTVSS | low polyreactivity |
| QVQLVESGGGLVQAGGSLRLSCAASGSTFSLYMGWYRQAPGKERELVAAITYSGGRTYYADSVKGRFTITLDNAKNTFYLQMNSVNPEDTAVYYCATVFNDLTVYEDWSRFDYWGQGTQVTVSS | low polyreactivity |
| QVQLVESGGGLVQAGGSLRLSCAACGSIFRRYAMGWYRQAPGKERELVASIRGGGGTYYADSVKGRFTISRDNAKNTVYLQMNSLKPEDTAVYYCAATRYLAYFRKSFYYWGQGTQVTVSS | high polyreactivity |
| QVQLVESGGGLVQAGGSLRLSCAASGRIFYGNAMGWYRQAPGKVRELVAAISSGTSTNYADSVKGRFTISRDNAKNPVYLQMNSLKPEDTAVYYCAAGSYSRYLYSLYFDFDYWGQGTQVTVSS | low polyreactivity |
| QVQLVESGGGLVQAGGSLRLSCAASGITFKVYAMGWYRQAPRKEREFVAAITYSGGRTYYADSVKGRFTISRDNAKNTVYLQMNSLQPEDTAVYYCAKEYGIYTDTPYYYWGQGTQVTVSS | low polyreactivity |
| QVQLVESGGGLVQAGGSLRLSCAASGRIFATNARGWYRQAPGKERELVAVISSGGSTNYADSVKGRFTISRDNAKNTVYLQMNSLKPEDTAVYYCAASPGSRPTQPYDYWGQGTQVTVSS | low polyreactivity |
| QVQLVESGGGLVQAGGSLRLSCAASGIIFDTNAMGWYRQAPGKERELVATITQRGGTTYYADSVKGRFTISRDNAKNTVYLQMNSLKPEDTAVYYCNAGPVRLPYDSWGQGTQVTVSS | low polyreactivity |
| QVQLVESGGGLVQAGGSLRFSCAASGSIFITYAMGWYRQAPGKERELVAAISRSGGSTYYADSVKGRFTISRDNAKNTVYLQMNSLKPEDTAVYYCAAYPYSAGRYYYWGQGTQVTVSS | high polyreactivity |
| QVQLVESGGGLVQAGGSLRLSCAASGFNFVGNAMGWYRQAPGKERELVADITGSDGSTYYADSVKGRFTISRDNAKNTVYLQMNSLKPEDTAVYYCAASPPYKLVWWRRMDYWGQGTQVTVSS | low polyreactivity |
| QVQLVESGGGLVQAGGSLRLSCAASGYTFVIYAMGWYRQAPGKERELVAAITTIGGRTYYADSVKGRFTISRDNAKNTVYLLMNSLKPEDTAVYYCAADIRSNRLYDGGYWGQGTQVTVSS | low polyreactivity |
| QVQLVESVGGLVQAGGSLRLSCAASGIIFVGYAMGWYRPAPGKERELVSAIDLSGDSTYYADSVKGRFTISRDNAKNTVYLQMNSLKPEDTAVYYCAAGYWHRVNGDYDYWGQGTQVTVSS | high polyreactivity |
| QVQLVESGAGLVQAGGSLRLSCAASGRTVAWNAMGRYRQAPGKERELVAAISWSGTSTYYADSVKGRFTISRDNAKNTVYLQMNSLKPEDTAVYYCATSVKARQIYGYYYWGQGTQVSVSS | high polyreactivity |
| QVQRVESGGGLVQAGVSLRLSCASSGITFDVNALGWYRQAPGKERELVAAITAGGNTYYADSVKGRFTISRDKAKTTVYLQMNSLKPEETAVYYCAAVSTSLYWAGYDYWGQGTQVTVSS | low polyreactivity |
| QVQLVESGGGLVQAGGSLRLSCAASGFIFGGYAMGWYRQAPGKERELVAAISRSGGSTYYADSVKGRFTISRDNAKNTVYLQMNSLKPEDTAVYYCAAKFWPEDHRMDYWGQGTQVTVSS | low polyreactivity |
